This note sets out measurements from publication PMC12708868.

The assay deals with 1G4 TCRαβ with TCRβ T130C/H172C, on J8Zb2m-α-β- reporter T cells (human).

As for “iTAg tetramer/APC – HLA-A*02:01 NY-ESO-1 (…) (from UniProt P61769 21-119) (peptide-MHC)”, the peak NFAT reporter response to HLA–antigen tetramers relative to wild type came out at 50 % reduction.
